In patent publication US20100099203A1:

Assays:
[1] = target: Protein A (UniProt P38507); test: Back scattering interferometry, free solution in PBS, 0.67 uM Protein A with IgG varied over 6 concentrations, 2 h at room temperature, PEG 200 passivated chip
[2] = target: Protein A (UniProt P38507); test: Back scattering interferometry, free solution in PBS, 0.67 uM Protein A with IgG varied over 6 concentrations, 2 h at room temperature, PEG-5mer passivated chip

Substance: IgG Fc segment
- Kd [1]: 35 nM

Substance: IgG (antibody)
- Kd [2]: 8 nM
